We go through one molecule from publication PMC2804306 (Biopolymers, 2008).

The target of this experiment is Human MMP-12(ΔC) (human, UniProt P39900 106-263). In words: enzyme inhibition kinetics.
Human MMP-12(ΔC), sequence (P39900 106-263, stated change not applied): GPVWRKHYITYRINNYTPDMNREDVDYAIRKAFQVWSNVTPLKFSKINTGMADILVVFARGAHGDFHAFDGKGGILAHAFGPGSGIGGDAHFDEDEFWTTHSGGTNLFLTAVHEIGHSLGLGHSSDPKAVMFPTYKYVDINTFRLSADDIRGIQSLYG

B1: N-TIMP-1, N-terminal inhibitory domain of tissue inhibitor of metalloproteinases 1 (active form, free alpha-amino group of Cys1) (domain or fragment)
chain: not shown
For B1, the Ki was roughly 1.5 nM and the “stoichiometry N” value turned out to be 1.05 molar equivalents.
